Target: SARS-CoV-2 prefusion-stabilized trimeric spike ectodomain (S2Pecto) (SARS-CoV-2) (UniProt P0DTC2)
Experiment: ELISA on coated antigen

Substance: rCR3022 (recombinant form of the cross-reactive SARS-CoV SRBD mAb CR3022) (antibody)
- EC50: 0.0102 µg/mL

Source: patent publication US20210300999A1
